According to FireProtDB (doi:10.1002/prot.20496):
“And” between values parts separate entries of the source, which are not always exact repeats. Equal entries are not always repeated.

Details: Capra hircus, pH 7.5, Thermal, Tris-HCl 10 mM, CaCl2 2 mM, whole UniProt chain shown

B1: Alpha-lactalbumin wild type, P00712 (protein)
chain: MMSFVSLLLVGILFHATQAEQLTKCEVFQKLKDLKDYGGVSLPEWVCTAFHTSGYDTQAIVQNNDSTEYGLFQINNKIWCKDDQNPHSRNICNISCDKFLDDDLTDDIVCAKKILDKVGINYWLAHKALCSEKLDQWLCEKL
With B1 the Tm (DSC) was 71 °C and 71.1 °C and the Tm (Fluorescence) was 70.7 °C and 71.2 °C and 69.9 °C.
